Target: the molecule itself
Test: crystal structure

B1: Thermoanaerobacter brockii Can2 E341A mutant (TbrCan2^E341A), catalytically inactive (enzyme)
chain: MNEKVLVLIVGTNPLPNYVVGSHLKEKYDKFVLIYSEKNDKINQNSTYDYAKKLKEHLNLNDKCIFLPLSDVSNSEKIINDLREKFPSEDFVEVHLNYTGGTKTMVVHIYNFLKEKFKNNKIKFEGSYLDARDYKLVYDYSEEAISLKDTIKIDINTLLSIHLYEDIHFEFYDTYSYKQKFVDSFDKISQEIEKAIKDDKGEDFVKWLEDPFRKIFKGENKLLEKTAKFKKHIEKLLKDNDSSPIVKFNEKTPQFIWDILNAFPEGKKLNDGQKLWIPDDKITNDNLSSRVKDTVEFLNGKWFEWYVYSQIKSELLDRKLKEGEHFGISLKAQKKDSPYFALDIFLINGYQLIGISLTTSSTRELCKLKGFEVIHRVRQIGGDESKAILITGMDKSKTEDLQKDLAYETGSTQKRFVVFGIDDWADIGSKICEEVFK
  stoichiometry N: 2
